First the molecules themselves.
B1: 376_F06 (antibody, V domains shown)
VH: EVQLLESGGGLVQPGGSLRLSCAASGFTFSSYGMNWVRQAPGKGLEWVSGINYNGGYTGYADSVKGRFTISRDNSKNTLYLQMNSLRAEDTAVYYCARGANWHDTHLDYWGQGTLVTVSS
VL: DIQMTQSPSSLSASVGDRVTITCRASQSILTYVNWYQQKPGKAPKLVIYAATSRASGVPSRFSGSGSGTDFTLTISSLQPEDFATYYCQQSYETPLTFGGGTKVEIK
B2: 376_H11 (antibody, V domains shown)
VH: EVQLLESGGGLVQPGGSLRLSCAASGFTFDSYSMNWVRQAPGKGLEWVSNINYNGGYTGYADSVKGRFTISRDNSKNTLYLQMNSLRAEDTAVYYCARGANWHDTALDYWGQGTLVTVSS
VL: DIQMTQSPSSLSASVGDRVTITCRASQSISRYLNWYQQKPGKAPKLLIYAVTSLASGVPSRFSGSGSGTDFTLTISSLQPEDFATYYCQQSYESPLTFGGGTKVEIK
B3: 376_H01 (antibody, V domains shown)
VH: EVQLLESGGGLVQPGGSLRLSCAASGFTFSDYSMNWVRQAPGKGLEWVAGINYNGGYKGYADSVKGRFTISRDNSKNTLYLQMNSLRAEDTAVYYCARGANWHDTALDYWGQGTLVTVSS
VL: DIQMTQSPSSLSASVGDRVTITCRASQSILTYLNWYQQKPGKAPKLLIYAATSRASGVPSRFSGSGSGTDFTLTISSLQPEDFATYYCQQSYSTPLTFGGGTKVEIK
B4: 376_B06 (antibody, V domains shown)
VH: EVQLLESGGGLVQPGGSLRLSCAASGFTFSSYSMNWVRQAPGKGLEWVAGINYNSGYKGYADSVKGRFTISRDNSKNTLYLQMNSLRAEDTAVYYCARSATWHDTHLDYWGQGTLVTVSS
VL: DIQMTQSPSSLSASVGDRVTITCRASQSILTYLNWYQQKPGKAPKLLIYAATSRASGVPSRFSGSGSGTDFTLTISSLQPEDFATYYCQQSYDLPLTFGGGTKVEIK
B5: 370_E07 (antibody, V domains shown)
VH: EVQLLESGGGLVQPGGSLRLSCAASGFTFDSYSMNWVRQAPGKGLEWVANINYNGGYTGYADSVKGRFTISRDNSKNTLYLQMNSLRAEDTAVYYCARSATWHDTHLDYWGQGTLVTVSS
VL: DIQMTQSPSSLSASVGDRVTITCRASQSILTYLNWYQQKPGKAPKLLIYAATSRASGVPSRFSGSGSGTDFTLTISSLQPEDFATYYCQQSYDNPLTFGGGTKVEIK
B6: 365_F07 (antibody, V domains shown)
VH: EVQLLESGGGLVQPGGSLRLSCAASGFTFSSYSMNWVRQAPGKGLEWVSNINYNGGYKSYADSVKGRFTISRDNSKNTLYLQMNSLRAEDTAVYYCARSATWHDTALDYWGQGTLVTVSS
VL: DIQMTQSPSSLSASVGDRVTITCRASQSILSYVNWYQQKPGKAPKLVIYAATSRASGVPSRFSGSGSGTDFTLTISSLQPEDFATYYCQQSYDLPLTFGGGTKVEIK
B7: 374_A11 (antibody, V domains shown)
VH: EVQLLESGGGLVQPGGSLRLSCAASGFTFSDYSMNWVRQAPGKGLEWVANINYNSGYKGYADSVKGRFTISRDNSKNTLYLQMNSLRAEDTAVYYCARSATWHDTHLDYWGQGTLVTVSS
VL: DIQMTQSPSSLSASVGDRVTITCRASQSILSYVNWYQQKPGKAPKLVIYAATSRASGVPSRFSGSGSGTDFTLTISSLQPEDFATYYCQQSYSSPLTFGGGTKVEIK
B8: 369_G07 (antibody, V domains shown)
VH: EVQLLESGGGLVQPGGSLRLSCAASGFTFSSYSMNWVRQAPGKGLEWVAGINYNGGYTSYADSVKGRFTISRDNSKNTLYLQMNSLRAEDTAVYYCARSATWHDTHLDYWGQGTLVTVSS
VL: DIQMTQSPSSLSASVGDRVTITCRASQSILTYVNWYQQKPGKAPKLVIYAATSRASGVPSRFSGSGSGTDFTLTISSLQPEDFATYYCQQSYDNPLTFGGGTKVEIK
B9: 367_A01 (antibody, V domains shown)
VH: EVQLLESGGGLVQPGGSLRLSCAASGFTFSSYSMNWVRQAPGKGLEWVASINYNGGYTGYADSVKGRFTISRDNSKNTLYLQMNSLRAEDTAVYYCARSATWHDTHLDYWGQGTLVTVSS
VL: DIQMTQSPSSLSASVGDRVTITCRASQSILTYLNWYQQKPGKAPKLLIYAATSRASGVPSRFSGSGSGTDFTLTISSLQPEDFATYYCQQSYDLPLTFGGGTKVEIK
B10: 365_D05 (antibody, V domains shown)
VH: EVQLLESGGGLVQPGGSLRLSCAASGFTFDSYSMNWVRQAPGKGLEWVAGINYNGGYTSYADSVKGRFTISRDNSKNTLYLQMNSLRAEDTAVYYCARSATWHDTHLDYWGQGTLVTVSS
VL: DIQMTQSPSSLSASVGDRVTITCRASQSILTYVNWYQQKPGKAPKLLIYAATSRASGVPSRFSGSGSGTDFTLTISSLQPEDFATYYCQQSYNSPLTFGGGTKVEIK
B11: 373_B08 (antibody, V domains shown)
VH: EVQLLESGGGLVQPGGSLRLSCAASGFTFDSYSMNWVRQAPGKGLEWVANINYNSGYKGYADSVKGRFTISRDNSKNTLYLQMNSLRAEDTAVYYCARSATWHDTHLDYWGQGTLVTVSS
VL: DIQMTQSPSSLSASVGDRVTITCRASQSILTYLNWYQQKPGKAPKLVIYAATSLASGVPSRFSGSGSGTDFTLTISSLQPEDFATYYCQQSYENPLTFGGGTKVEIK
B12: 373_E06 (antibody, V domains shown)
VH: EVQLLESGGGLVQPGGSLRLSCAASGFTFDSYSMNWVRQAPGKGLEWVAGINYNSGYKSYADSVKGRFTISRDNSKNTLYLQMNSLRAEDTAVYYCARSATWHDTHLDYWGQGTLVTVSS
VL: DIQMTQSPSSLSASVGDRVTITCRASQSILRYLNWYQQKPGKAPKLLIYAATSLHSGVPSRFSGSGSGTDFTLTISSLQPEDFATYYCQQSYDNPLTFGGGTKVEIK
B13: 366_A05 (antibody, V domains shown)
VH: EVQLLESGGGLVQPGGSLRLSCAASGFTFSSYSMNWVRQAPGKGLEWVAGINYNSGYTGYADSVKGRFTISRDNSKNTLYLQMNSLRAEDTAVYYCARSATWHDTHLDYWGQGTLVTVSS
VL: DIQMTQSPSSLSASVGDRVTITCRASQSILTYVNWYQQKPGKAPKLVIYAATSLASGVPSRFSGSGSGTDFTLTISSLQPEDFATYYCQQSYNTPLTFGGGTKVEIK
B14: 367_G07 (antibody, V domains shown)
VH: EVQLLESGGGLVQPGGSLRLSCAASGFTFDSYSMNWVRQAPGKGLEWVANINYNGGYTGYADSVKGRFTISRDNSKNTLYLQMNSLRAEDTAVYYCARSATWHDTHLDYWGQGTLVTVSS
VL: DIQMTQSPSSLSASVGDRVTITCRASQSILTYVNWYQQKPGKAPKLLIYAATSRASGVPSRFSGSGSGTDFTLTISSLQPEDFATYYCQQSYDNPLTFGGGTKVEIK
B15: 373_E02 (antibody, V domains shown)
VH: EVQLLESGGGLVQPGGSLRLSCAASGFTFDSYGMHWVRQAPGKGLEWVSGINYNGGYKGYADSVKGRFTISRDNSKNTLYLQMNSLRAEDTAVYYCARSATWHDTHLDYWGQGTLVTVSS
VL: not shown
B16: 372_D04 (antibody, V domains shown)
VH: EVQLLESGGGLVQPGGSLRLSCAASGFTFSSYSMNWVRQAPGKGLEWVANINYNSGYTGYADSVKGRFTISRDNSKNTLYLQMNSLRAEDTAVYYCARSATWHDTHLDYWGQGTLVTVSS
VL: DIQMTQSPSSLSASVGDRVTITCRASQSILTYLNWYQQKPGKAPKLLIYAATSLHSGVPSRFSGSGSGTDFTLTISSLQPEDFATYYCQQSYDLPLTFGGGTKVEIK
B17: 373_G05 (antibody, V domains shown)
VH: EVQLLESGGGLVQPGGSLRLSCAASGFTFSSYSMNWVRQAPGKGLEWVAGINYNGGYTSYADSVKGRFTISRDNSKNTLYLQMNSLRAEDTAVYYCARSATWHDTHLDYWGQGTLVTVSS
VL: DIQMTQSPSSLSASVGDRVTITCRASQSILSYLNWYQQKPGKAPKLLIYAATSLASGVPSRFSGSGSGTDFTLTISSLQPEDFATYYCQQSYELPLTFGGGTKVEIK
B18: 373_B11 (antibody, V domains shown)
VH: EVQLLESGGGLVQPGGSLRLSCAASGFTFSSYSMNWVRQAPGKGLEWVANINYNSGYKGYADSVKGRFTISRDNSKNTLYLQMNSLRAEDTAVYYCARSATWHDTHLDYWGQGTLVTVSS
VL: DIQMTQSPSSLSASVGDRVTITCRASQSILSYLNWYQQKPGKAPKLLIYAATSRASGVPSRFSGSGSGTDFTLTISSLQPEDFATYYCQQSYDNPLTFGGGTKVEIK
B19: 369_A10 (antibody, V domains shown)
VH: EVQLLESGGGLVQPGGSLRLSCAASGFTFDSYSMNWVRQAPGKGLEWVAGINYNSGYTGYADSVKGRFTISRDNSKNTLYLQMNSLRAEDTAVYYCARSATWHDTHLDYWGQGTLVTVSS
VL: DIQMTQSPSSLSASVGDRVTITCRASQSILSYLNWYQQKPGKAPKLLIYAATSRASGVPSRFSGSGSGTDFTLTISSLQPEDFATYYCQQSYELPLTFGGGTKVEIK
B20: 374_C05 (antibody, V domains shown)
VH: EVQLLESGGGLVQPGGSLRLSCAASGFTFDSYSMNWVRQAPGKGLEWVAGINYNSGYKSYADSVKGRFTISRDNSKNTLYLQMNSLRAEDTAVYYCARSATWHDTHLDYWGQGTLVTVSS
VL: DIQMTQSPSSLSASVGDRVTITCRASQSIIRYLNWYQQKPGKAPKLVIYAATSRASGVPSRFSGSGSGTDFTLTISSLQPEDFATYYCQQSYDNPLTFGGGTKVEIK

Sequence of ACVR2A on primary human myotubes (P27037 20-513): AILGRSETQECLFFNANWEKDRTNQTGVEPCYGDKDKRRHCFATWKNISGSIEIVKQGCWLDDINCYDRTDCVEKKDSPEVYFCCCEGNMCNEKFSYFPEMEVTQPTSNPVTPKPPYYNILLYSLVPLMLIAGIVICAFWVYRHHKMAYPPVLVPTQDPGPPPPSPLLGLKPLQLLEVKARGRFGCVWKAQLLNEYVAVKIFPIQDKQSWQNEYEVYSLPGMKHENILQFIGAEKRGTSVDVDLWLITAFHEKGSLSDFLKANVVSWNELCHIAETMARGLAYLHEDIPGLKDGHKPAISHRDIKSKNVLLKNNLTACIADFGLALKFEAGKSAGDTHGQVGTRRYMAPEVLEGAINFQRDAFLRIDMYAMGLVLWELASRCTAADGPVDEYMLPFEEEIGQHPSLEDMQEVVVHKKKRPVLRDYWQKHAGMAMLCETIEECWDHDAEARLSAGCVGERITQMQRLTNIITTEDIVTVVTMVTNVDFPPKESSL
Sequence of Human ACVR2A (on cells) (P27037 20-513): as above

The first test has as its target ACVR2A on primary human myotubes (human, UniProt P27037 20-513). Description: cell-based or functional assay.
Turning to B1, the “Phospho-SMAD3 Human Skeletal Muscle GDF8” value amounted to 0.0544.

For the molecule B2, the “Phospho-SMAD3 Human Skeletal Muscle GDF8” value was 0.0042.

Consider B3, for which the “Phospho-SMAD3 Human Skeletal Muscle GDF8” value was 0.0562.

The next test concerns the target Human ACVR2A (on cells) (human, UniProt P27037 20-513). Description: cell-based or functional assay.
With B4, the “Phospho-SMAD3 Human Skeletal Muscle GDF8 (AlphaLisa, primary human myotubes)” value stood at 0.0042.

Turning to B5, the “Phospho-SMAD3 Human Skeletal Muscle GDF8 (AlphaLisa, primary human myotubes)” value amounted to 0.0046.

As to B6, the “Phospho-SMAD3 Human Skeletal Muscle GDF8 (AlphaLisa, primary human myotubes)” value stood at 0.011.

Regarding B7, the “Phospho-SMAD3 Human Skeletal Muscle GDF8 (AlphaLisa, primary human myotubes)” value was found to be 0.0086.

Regarding B8, the “Phospho-SMAD3 Human Skeletal Muscle GDF8 (AlphaLisa, primary human myotubes)” value came to 0.012.

For B9, the “Phospho-SMAD3 Human Skeletal Muscle GDF8 (AlphaLisa, primary human myotubes)” value worked out at 0.0065.

B10: the “Phospho-SMAD3 Human Skeletal Muscle GDF8 (AlphaLisa, primary human myotubes)” value worked out at 0.0209.

Consider B11, for which the “Phospho-SMAD3 Human Skeletal Muscle GDF8 (AlphaLisa, primary human myotubes)” value was determined as 0.0102.

Turning to B12, the “Phospho-SMAD3 Human Skeletal Muscle GDF8 (AlphaLisa, primary human myotubes)” value is 0.0005.

B13: the “Phospho-SMAD3 Human Skeletal Muscle GDF8 (AlphaLisa, primary human myotubes)” value was found to be 0.0244.

Consider B14, for which the “Phospho-SMAD3 Human Skeletal Muscle GDF8 (AlphaLisa, primary human myotubes)” value is 0.0068.

Consider B15, for which the “Phospho-SMAD3 Human Skeletal Muscle GDF8 (AlphaLisa, primary human myotubes)” value worked out at 0.0049.

Consider B16, for which the “Phospho-SMAD3 Human Skeletal Muscle GDF8 (AlphaLisa, primary human myotubes)” value was 0.0114.

Consider B17, for which the “Phospho-SMAD3 Human Skeletal Muscle GDF8 (AlphaLisa, primary human myotubes)” value is 0.0059.

On to B18, for which the “Phospho-SMAD3 Human Skeletal Muscle GDF8 (AlphaLisa, primary human myotubes)” value turned out to be 0.0008.

With B19, the “Phospho-SMAD3 Human Skeletal Muscle GDF8 (AlphaLisa, primary human myotubes)” value turned out to be 0.0076.

With B20, the “Phospho-SMAD3 Human Skeletal Muscle GDF8 (AlphaLisa, primary human myotubes)” value was determined as 0.0124.

These data come from patent publication US20210380703A1 (RIGEL PHARMACEUTICALS, published 2021).
